In assay [1] the target is human CLDN18.2 on cells (human) (UniProt P56856). The experiment in a line: flow cytometry on CHO-GS-hCLDN18.2 cells.
Assay [2] shares this target. As to the kind of experiment: flow cytometry on DAN-G18.2 cells. For orientation: Flow cytometry measures light scatter and fluorescence of single cells or particles in a stream.
Assay [3] has the same target. The experiment in a line: flow cytometry on SUN601 (SNU601) cells.

B1: Hz69H9-2.1 PG Ab (antibody, human IgG1, kappa, V domains shown)
VH: QVQLVQSGAEVKKPGSSVKVSCKASGYSFSSYNIHWVRQAPGQGLEWMGYIAPFQGDARYNQKFKGRVTITADKSTSTAYMELSSLRSEDTAVYYCARLNRGNALDYWGQGTLVTVSS
VL: DIVMTQSPDSLAVSLGERATINCKSSQSLFQSGNQRNYLTWYQQKPGQPPKLLIYWASTRESGVPDRFSGSGSGTDFTLTISSLQAEDVAVYYCQNNYIYPLTFGGGTKVEIKR
The EC50 is the midpoint of the concentration-response curve. Lower therefore signals greater potency. As to B1, the EC50 worked out at 8.21 nM in assay [1], 6.95 nM in assay [2] and 261 nM in assay [3].

The record behind these values is patent US20250009801A1.
